According to patent publication US20240368282A1 (BIOSCEPTRE AUST, published 2024):

Biological target: T1, dysfunctional P2X7 receptor (human, UniProt Q99572 1-595)
T1 construct: Endogenous on cancer cell lines (MOLM-13, JeKo-1); also called nfP2X7; nfP2X7 receptor
T1 sequence: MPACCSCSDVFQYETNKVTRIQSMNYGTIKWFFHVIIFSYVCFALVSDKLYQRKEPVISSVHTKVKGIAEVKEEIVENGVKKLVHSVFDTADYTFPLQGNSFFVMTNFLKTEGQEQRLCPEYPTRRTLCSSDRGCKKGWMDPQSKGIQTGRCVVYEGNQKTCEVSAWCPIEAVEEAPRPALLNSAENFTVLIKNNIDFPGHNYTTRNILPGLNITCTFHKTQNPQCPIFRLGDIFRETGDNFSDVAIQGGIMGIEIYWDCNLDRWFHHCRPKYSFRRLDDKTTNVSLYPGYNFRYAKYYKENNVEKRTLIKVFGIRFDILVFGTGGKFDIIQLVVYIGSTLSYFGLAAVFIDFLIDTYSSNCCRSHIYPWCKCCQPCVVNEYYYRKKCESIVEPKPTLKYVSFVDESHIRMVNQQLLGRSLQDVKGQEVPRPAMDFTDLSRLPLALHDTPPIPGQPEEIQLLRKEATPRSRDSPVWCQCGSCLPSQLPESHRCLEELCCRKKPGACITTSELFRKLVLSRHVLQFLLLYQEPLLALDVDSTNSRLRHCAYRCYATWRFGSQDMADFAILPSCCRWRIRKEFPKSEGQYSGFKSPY
Assay: flow cytometry, anti-HIS-FITC, MOLM-13 cells
Protocol: Indirect staining of artificial proteins on MOLM-13 cells via anti-HIS staining. […] Histogram overlay of HIS-FITC positivity on MOLM-13. […] HIS-ab was used according to manufacturer with 1 μl per test, target cells were incubated with 50 μl of supernatant from Lenti-X™ 293T cells for 10 min at room temperature. Supernatant harvested 48 h after transfection.

binding result: binds
B1: Orchestration molecule OR2-3 (nfP2X7), IgG1 format (antibody, V domains shown)
VH: EVQLLESGGGLVQPGGSLRLSCAASGFTFRNHDMGWVRQAPGKGLEWVSAISGSGGSTYYANSVKGRFTISRDNSKNTLYLQMNSLRAEDTAVYYCAEPKPMDTEFDYRSPGTLVTVSS
VL: DIQMTQSPSSLSASVGDRVTITCRASQYIYDYLNWYQQKPGKAPKLLIYAASYLQSGVPSRFSGSGSGTDFTLTISSLQPEDFATYYCQQYHHPSTFGQGTKVEIKR
notes: Tested as supernatant; also called OR2 paired to OR3
